How the values were obtained:
BxPC3 cells = experiment: Secondary ADC cell killing assay (antibody + anti-human Fc nanobody conjugated to SC236) on BxPC3; format: cell-based; conditions: Table 17; nanobody-SC236 20 nM, 120 hrs
Procedure: The internalization ability of the lead antibodies was evaluated by an ADC cell killing assay on Tissue Factor positive BxPC3 cells. A total of 625 cells in a volume of 25 μL were seeded in each well of a 384-well flat bottom white polystyrene plate. Lead antibodies were formulated at 4-fold starting concentration in the cell culture medium and filtered through MultiScreenHTS 96-Well Filter Plates (Millipore; Billerica, Massachusetts). 12.5 μL of antibody was added into each treatment well, and 12.5 μL of anti-human Fc nanobody conjugated to SC236 was then added into each well at a fixed final concentration of 20 nM. Assay plates were cultured at 37° C. in a CO2 incubator for 120 hrs before assay. For cell viability measurement, 30 μL of Cell Titer-Glo® reagent (Promega Corp. Madison, WI) was added into each well, and plates were processed as per product instructions. Relative luminescence was measured on an ENVISION® plate reader (Perkin-Elmer; Waltham, MA). Relative luminescence readings were converted to percent viability using untreated cells as controls. Data was fitted with non-linear regression analysis, using a log (inhibitor) vs. response-variable slope, 4 parameter fit with GraphPad Prism (GraphPad v 5.0, Software; San Diego, California).

[1] = DSF protein thermal shift assay (melting temperatures TM1/TM2); format: physicochemical; conditions: Table 8, humanized rabbit antibodies; TM2 = Fab domain
Procedure: (§1) A protein thermal shift assay was carried out by mixing the protein to be assayed with an environmentally sensitive dye (SYPRO Orange, Life Technologies #S-6650) and monitoring the fluorescence of the mixture in real time as it underwent controlled thermal denaturation. Protein solutions between 0.2-2 mg/mL were mixed at a 1:1 volumetric ratio with a solution of SYPRO Orange solution diluted 250-fold in PBS+10% sucrose. 10 μL aliquots of the protein-dye mixture were dispensed in quadruplicate in a 384-well microplate (Bio-Rad #MSP-3852). The plate was sealed with an optically clear sealing film (Bio-Rad #MSB-1001) and placed in a 384-well plate real-time thermocycler (Bio-Rad CFX384 Real Time System). The protein-dye mixture was heated from 25° C. to 95° C., at increments of 0.2° C. per cycle, allowing 3 seconds of equilibration at each temperature before taking a fluorescence measurement. At the end of the experiment, the transition melting temperatures (TM1 and TM2) were determined using the Bio-Rad CFX manager software. TM1 represents the melting temperature of the Fc domain. TM2 represents the melting temperature of the Fab domain.
as §1, with “solutions at 1” for “solutions between 0.2-2”, “a 1-1” for “a 1:1”, “sucrose. 5” for “sucrose. 10”

human TF = target: T1, human TF (Homo sapiens, UniProt P13726); experiment: Biacore off-rate and kinetic binding, human TF; conditions: Table 11, humanized rabbit antibodies; 100 nM antigen, 25° C.
T1 construct: purchased Lake Pharma
T1 sequence (P13726 33-295): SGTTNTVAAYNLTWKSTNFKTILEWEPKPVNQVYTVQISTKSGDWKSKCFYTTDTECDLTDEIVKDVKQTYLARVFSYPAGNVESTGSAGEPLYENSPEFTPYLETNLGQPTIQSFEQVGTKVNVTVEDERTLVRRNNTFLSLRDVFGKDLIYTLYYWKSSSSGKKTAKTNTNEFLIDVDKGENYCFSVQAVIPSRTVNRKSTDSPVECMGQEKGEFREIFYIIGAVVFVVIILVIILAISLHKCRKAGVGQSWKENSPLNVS
Procedure: (§2) Anti-Fc polyclonal antibodies were immobilized onto a CM4 chip (Cytiva #BR100534) using amine coupling chemistry (Human Antibody Capture Kit, Cytiva #BR100839). The immobilization steps were carried out at a flow rate of 25 μL/min in 1×HBS-EP+buffer (Cytiva #BR100669). The sensor surfaces were activated for 7 min with a mixture of N-hydroxysuccinimide (NHS, 0.05 M) and 1-ethyl-3-(3-dimethylaminopropyl)-carbodiimide (EDC, 0.2 M). The anti-Fc polyclonal antibodies were injected over all 4 flow cells at a concentration of 25 μg/mL in 10 mM sodium acetate, pH 4.5, for 7 min. Ethanolamine (1 M, pH 8.5) was injected for 7 min to block any remaining activated groups. Approximately 6,000 response units (RU) of capture antibody was immobilized on each flow cell.
(§3) Off-rate and kinetic binding experiments were performed at 25° C. using 1×HBS-EP+buffer. Antibodies were injected over the anti-Fc surface at a concentration of 3 μg/mL for 12 seconds at a flow rate of 10 μL/min on flow cells 2, 3 and 4, followed by a buffer wash for 30 seconds at the same flow rate. Single point off-rate analysis was carried out using an antigen concentration of 100 nM. […] After capturing ligand (antibody) on the anti-Fc surface, the analyte (human TF, Lake Pharma; cynomolgus TF, Sino Bio #90885-C08H; mouse TF, R&D Systems #3178-PA) was bound for 180 seconds, followed by a 420 second dissociation phase at a flow rate of 50 μL/min. Between each ligand capture and analyte binding cycle, regeneration was carried out using 2 injections of 10 mM glycine pH 2.0 for 30 seconds at 30 μL/min, followed by a 30 second buffer wash step.
(§4) The data were fit with the Biacore T200 Evaluation software, using a 1:1 Langmuir binding model. KD (affinity, nM) was determined as a ratio of the kinetic rate constants calculated from the fits of the association and dissociation phases.
(§5) Anti-Fc polyclonal antibodies were immobilized onto a CM4 chip (Cytiva #BR100534) using amine coupling chemistry (Human Antibody Capture Kit, Cytiva #BR100839). The immobilization steps were carried out at a flow rate of 25 μL/min in 1×HBS-EP+buffer (Cytiva #BR100669). The sensor surfaces were activated for 7 min with a mixture of NHS (0.05 M) and EDC (0.2 M). The Anti-Fc antibodies were injected over all 4 flow cells at a concentration of 25 ug/ml in 10 mM sodium acetate, pH 4.5, for 7 min. Ethanolamine (1 M, pH 8.5) was injected for 7 min to block any remaining activated groups. Approximately 6,000 response units (RU) of capture antibody was immobilized on each flow cell. Off-rate and kinetic binding experiments were performed at 25° C. using 1×HBS-EP+buffer. Antibodies or ADCs were injected over the anti-Fc surface at a concentration of 3 μg/mL for 12 seconds at a flow rate of 10 μL/min on flow cells 2, 3 and 4, followed by a buffer wash for 30 seconds at the same flow rate. […] After capturing ligand (antibody) on the anti-Fc surface, the analyte (human TF, Lake Pharma; cynomolgus TF, Sino Bio #90885-C08H; mouse TF, R&D Systems #3178-PA) was bound for 180 seconds, followed by a 420 second dissociation phase at a flow rate of 50 μL/min. Between each ligand capture and analyte binding cycle, regeneration was carried out using 2 injections of 10 mM Glycine pH 2.0 for 30 seconds at 30 μL/min, followed by a 30 second buffer wash step. The data was fit with the Biacore T200 Evaluation software, using a 1-1 Langmuir binding model. KD (affinity, nM) was determined as a ratio of the kinetic rate constants calculated from the fits of the association and dissociation phases.

cynomolgus TF = experiment: Biacore off-rate and kinetic binding, cynomolgus TF; conditions: Table 11, humanized rabbit antibodies; 100 nM antigen, 25° C.
Chain of cynomolgus TF (as listed by the source): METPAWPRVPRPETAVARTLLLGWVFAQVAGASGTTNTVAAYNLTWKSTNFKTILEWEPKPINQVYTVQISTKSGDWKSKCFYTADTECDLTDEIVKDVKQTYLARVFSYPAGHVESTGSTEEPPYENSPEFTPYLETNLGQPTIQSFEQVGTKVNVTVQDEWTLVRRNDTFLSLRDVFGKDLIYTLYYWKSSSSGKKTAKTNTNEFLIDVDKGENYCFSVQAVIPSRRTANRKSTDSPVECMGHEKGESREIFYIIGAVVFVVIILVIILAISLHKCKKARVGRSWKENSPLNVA
Procedure: as §2, §3, §4, §5

Row | Molecule | BxPC3 Cell Killing Span (%) (BxPC3 cells) | EC50 (BxPC3 cells) | DSF TM2 (° C.) [1] | Biacore human TF single point off-rate kinetics kd (human TF) | Biacore cynomolgus TF single point off-rate kinetics kd (cynomolgus TF)
1 | SRP2901-E03 (antibody, V domains shown) VH: MEVQLVESGGGLVQPGGSLRLSCAASGFSISSYDMSWVRQAPGKGLEWIGIIGSNGRTYYPDSVKGRFTISRDNSKNTVTLQMNSLRAEDTAVYYCARGLYDGTGNIWGQGTLVTVSS VL: MELVMTQSPPTLSLSPGERVTLSCRASQSVYGNNWLSWYQQKPGQAPRLLIYGASKLATSIPARFSGSGSGTQFTLTISSLQPEDFAVYYCQGTYYSGDWYFAFGQGTKVEIK | 92.4% | 0.166 nM |  |  | 
2 | SRP2901-F01 (antibody, V domains shown) VH: MQVQVVESGGGLVKPGGSLRLSCAASGFSISSYDMSWIRQAPGKGLEWIGIIGSNGRTYYADSVKGRFTISRNTNENTVYLQMNSLRAEDTAVYYCARGLYDGTGNIWGQGTLVTVSS VL: MDIQMTQSPSSLSASVGDRVTITCQASQSVYGNNWLSWYQQKPGKAPKLLIYGASKLASGVPSRFSGSGSGTDFTLTISSLQPEDFATYYCQGTYYSGDWYFAFGGGTKVEIK | 87% | 0.364 nM |  |  | 
3 | SRP2901-D03 (antibody, V domains shown) VH: MEVQLVESGGGLVQPGGSLRLSCAASGFSISSYDMSWVRQAPGKGLEWIGIIGSNGRTYYPDSVKGRFTISRDNSKNTVTLQMNSLRAEDTAVYYCARGLYDGTGNIWGQGTLVTVSS VL: MDLQMTQSPSSLSASVGDRVTITCRASQSVYGNNWLSWYQQKPGKAPKLLIYGASKLASGVPSRFSGSGSGTQFTLTISSLQPEDFATYYCQGTYYSGDWYFAFGQGTKVEIK | 77.4% | 0.184 nM |  |  | 
4 | 2842-G04 HC2/LC2 (antibody, conjugated to LP1 at Y180/F404) heavy: MQVQVQESGPGLVKPPGTLSLTCAVSGFSLSYYGVSWVRQPPGKGLEWIGTIDSSGRTYYNPSLKSRVTISNDNAPNTVSLKLSSVTAADTAVYYCARDFYGWNSGALDIWGQGTLVTVSSASTKGPSVFPLAPSSKSTSGGTAALGCLVKDYFPEPVTVSWNSGALTSGVHTFPAVLQSSGLSLSSVVTVPSSSLGTQTYICNVNHKPSNTKVDKKVEPKSCDKTHTCPPCPAPELLGGPSVFLFPPKPKDTLMISRTPEVTCVVVDVSHEDPEVKFNWYVDGVEVHNAKTKPREEQYNSTYRVVSVLTVLHQDWLNGKEYKCKVSNKALPAPIEKTISKAKGQPREPQVYTLPPSREEMTKNQVSLTCLVKGFYPSDIAVEWESNGQPENNYKTTPPVLDSDGSFLYSKLTVDKSRWQQGNVFSCSVMHEALHNHYTQKSLSLSPGK light: MDLQLTQSPSTLSASVGDRVTITCRASQSVYSNKYLSWYQQKPGKAPKLLIYKASTLASGVPSRFSGSGSGTEFTLTISSLQPDDFATYYCAAAYSDDSDTAFGQGTKVEIKRTVAAPSVFIFPPSDEQLKSGTASVVCLLNNFYPREAKVQWKVDNALQSGNSQESVTEQDSKDSTYSLSSTLTLSKADYEKHKVYACEVTHQGLSSPVTKSFNRGEC |  |  | 80.2 °C | 0.000736 s⁻¹ | 0.0017 s⁻¹
5 | SRP2901-B05 (antibody, V domains shown) VH: MQVQVQESGPGLVKPPGTLSLTCAVSGFSLSYYGVSWVRQPPGKGLEWIGTIDSSGRTYYNPSLKSRVTISNDNAPNTVSLKLSSVTAADTAVYYCARDFYGWNSGALDIWGQGTLVTVSS VL: MDLQLTQSPSTLSASVGDRVTITCRASQSVYSNKYLSWYQQKPGKAPKLLIYKASTLASGVPSRFSGSGSGTEFTLTISSLQPDDFATYYCAAAYSDDSDTAFGQGTKVEIK | 84% | 0.059 nM |  |  | 
6 | 2842-B01 HC3/LC1 (antibody, conjugated to LP1 at Y180/F404) heavy: MEVQLVESGGGLVQPGGSLRLSCAASGFSISSYDMSWVRQAPGKGLEWIGIIGSNGRTYYPDSVKGRFTISRDNSKNTVTLQMNSLRAEDTAVYYCARGLYDGTGNIWGQGTLVTVSSASTKGPSVFPLAPSSKSTSGGTAALGCLVKDYFPEPVTVSWNSGALTSGVHTFPAVLQSSGLSLSSVVTVPSSSLGTQTYICNVNHKPSNTKVDKKVEPKSCDKTHTCPPCPAPELLGGPSVFLFPPKPKDTLMISRTPEVTCVVVDVSHEDPEVKFNWYVDGVEVHNAKTKPREEQYNSTYRVVSVLTVLHQDWLNGKEYKCKVSNKALPAPIEKTISKAKGQPREPQVYTLPPSREEMTKNQVSLTCLVKGFYPSDIAVEWESNGQPENNYKTTPPVLDSDGSFLYSKLTVDKSRWQQGNVFSCSVMHEALHNHYTQKSLSLSPGK light: MDLQMTQSPSSLSASVGDRVTITCRASQSVYGNNWLSWYQQKPGKAPKLLIYGASKLASGVPSRFSGSGSGTQFTLTISSLQPEDFATYYCQGTYYSGDWYFAFGQGTKVEIKRTVAAPSVFIFPPSDEQLKSGTASVVCLLNNFYPREAKVQWKVDNALQSGNSQESVTEQDSKDSTYSLSSTLTLSKADYEKHKVYACEVTHQGLSSPVTKSFNRGEC |  |  | 86.5 °C | 0.000416 s⁻¹ | 0.00187 s⁻¹

From patent US12540197B2, “Anti-tissue factor antibodies and antibody conjugates, compositions comprising anti-tissue factor antibodies or antibody conjugates, and methods of making and using anti-tissue factor antibodies and antibody conjugates” (SUTRO BIOPHARMA, INC., priority 2023, dated 2026)
